Experimental data: publication PMC3222833 (Journal of medicinal chemistry, 2011)
“And” between values parts separate entries of the source, which are not always exact repeats. Equal values may be shown once. One block for each molecule: values may come before it. Residues, ends and D or L forms follow the SMILES beside them.

How the values were obtained:
[1] = biological target: T1, recombinant human GCPII (rhGCPII) (Homo sapiens, UniProt Q04609); details: cited from earlier work
rhGCPII = details: WT rhGCPII, radioenzymatic assay with 3H-NAAG; cited from earlier work
rhGCPII(K699S) mutant = rhGCPII(K699S) mutant (Homo sapiens, UniProt Q04609, K699S); assay: Saturation kinetics of substrate hydrolysis by mutated GCPII; format: biochemical; details: kinetic assay
rhGCPII(K699S) mutant, sequence (Q04609 44-750 K699S): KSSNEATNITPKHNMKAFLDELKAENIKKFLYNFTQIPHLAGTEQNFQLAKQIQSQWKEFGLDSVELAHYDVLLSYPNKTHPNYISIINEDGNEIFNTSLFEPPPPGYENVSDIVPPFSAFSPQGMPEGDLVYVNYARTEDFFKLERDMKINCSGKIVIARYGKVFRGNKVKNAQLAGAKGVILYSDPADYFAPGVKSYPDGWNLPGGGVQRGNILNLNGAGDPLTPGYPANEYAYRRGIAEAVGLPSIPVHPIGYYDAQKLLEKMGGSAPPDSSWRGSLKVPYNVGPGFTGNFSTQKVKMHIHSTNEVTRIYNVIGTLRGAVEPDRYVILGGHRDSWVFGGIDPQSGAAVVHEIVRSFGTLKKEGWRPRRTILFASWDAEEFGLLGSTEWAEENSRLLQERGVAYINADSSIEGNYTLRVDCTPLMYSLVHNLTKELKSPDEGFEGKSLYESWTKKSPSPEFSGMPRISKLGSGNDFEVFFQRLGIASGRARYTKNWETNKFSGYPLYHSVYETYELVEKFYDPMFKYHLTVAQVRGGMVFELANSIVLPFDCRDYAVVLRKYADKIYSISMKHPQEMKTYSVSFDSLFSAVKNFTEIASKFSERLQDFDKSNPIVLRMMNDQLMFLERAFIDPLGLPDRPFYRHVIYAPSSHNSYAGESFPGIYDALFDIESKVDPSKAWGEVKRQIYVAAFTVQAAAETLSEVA

[2] = biological target: T1, recombinant human GCPII (rhGCPII); assay: Saturation kinetics of dipeptide hydrolysis by wild-type rhGCPII; format: biochemical; details: ratio of catalytic efficiency
[3] = tested on: CSCC[C@H](NC(=O)[C@H](CC(=O)O)NC(C)=O)C(=O)O; assay: as above; format: biochemical, human; details: other: wild-type GCPII, Table 2; 37.0 °C
[4] = tested on: CCCC[C@H](NC(=O)[C@H](CC(=O)O)NC(C)=O)C(=O)O; assay: as above; format: biochemical, human; details: other: wild-type rhGCPII, Table 1; 37.0 °C
[5] = tested on: CCCCCC(NC(=O)[C@H](CC(=O)O)NC(C)=O)C(=O)O; assay: as above; format: biochemical, human; details: other: wild-type rhGCPII, Table 1; 37.0 °C
[6] = tested on: CCCCCCCC(NC(=O)[C@H](CC(=O)O)NC(C)=O)C(=O)O; assay: as above; format: biochemical, human; details: 37.0 °C
[7] = tested on: CCC[C@H](NC(=O)[C@H](CC(=O)O)NC(C)=O)C(=O)O; assay: as above; format: biochemical, human; details: other: wild-type rhGCPII, Table 1; 37.0 °C
[8] = tested on: CC[C@H](NC(=O)[C@H](CC(=O)O)NC(C)=O)C(=O)O; assay: as above; format: biochemical, human; details: other: wild-type rhGCPII, Table 1; 37.0 °C
[9] = tested on: CCCCCCC(NC(=O)[C@H](CC(=O)O)NC(C)=O)C(=O)O; assay: as above; format: biochemical, human; details: other: wild-type rhGCPII, Table 1; 37.0 °C
[10] = tested on: CC(=O)N[C@@H](CC(=O)O)C(=O)N[C@@H](C)C(=O)O; assay: as above; format: biochemical, human; details: other: wild-type rhGCPII, Table 1; 37.0 °C
[11] = other: wild-type GCPII, Table 2
[12] = other: wild-type rhGCPII, Table 1

T1 sequence (Q04609 44-750): as the sequence (Q04609 44-750 K699S) above, with S656K counted along it

Molecule: CSCC[C@H](NC(=O)[C@H](CC(=O)O)NC(C)=O)C(=O)O [NAAM, N-acetyl-aspartyl-methionine] (Ac-Asp-Met-OH)
Km [1]: 24.8 ± 2.9 µM

Molecule: CC(=O)N[C@@H](CC(=O)O)C(=O)N[C@@H](CCC(=O)O)C(=O)O [NAAG, N-acetyl-aspartyl-glutamate] (Ac-Asp-Glu-OH)
Km (rhGCPII): 1.2 ± 0.5 µM
kcat (rhGCPII): 1.1 ± 0.2 ^# s^-1 and 1.1 ± 0.2 ^* s^-1

stronger binding to K699S mutant compared to wild-type GCPII (rhGCPII(K699S) mutant): approximately 3 fold
efficiency of rhGCPII hydrolysis compared to Ac-Asp-Ala [2]: approximately 20 fold
Molecule: CCCCCCCC(NC(=O)[C@H](CC(=O)O)NC(C)=O)C(=O)O (some centres unmarked) [8S, Ac-Asp-Ano]

Molecule: recombinant human GCPII (rhGCPII) (Homo sapiens)
Km [3]: 7.5 ± 1.6 µM
kcat [3]: 0.32 ± 0.07 s⁻¹
kcat/Km [3]: 42700 M⁻¹ s⁻¹
Km [4]: 19 ± 4 µM
kcat [4]: 0.24 ± 0.01 s⁻¹
kcat/Km [4]: 12600 M⁻¹ s⁻¹
Km [5]: 12 ± 1 µM
kcat [5]: 0.44 ± 0.04 s⁻¹
kcat/Km [5]: 36700 M⁻¹ s⁻¹
Km [6, 11]: 10.4 ± 2.5 µM
kcat [6, 11]: 0.62 ± 0.10 s⁻¹
kcat/Km [6, 11]: 59600 M⁻¹ s⁻¹
Km [6, 12]: 10 ± 2 µM
kcat [6, 12]: 0.62 ± 0.1 s⁻¹
kcat/Km [6, 12]: 62000 M⁻¹ s⁻¹
Km [7]: 31 ± 12 µM
kcat [7]: 0.42 ± 0.05 s⁻¹
kcat/Km [7]: 13500 M⁻¹ s⁻¹
Km [8]: 29 ± 8 µM
kcat [8]: 0.25 ± 0.03 s⁻¹
kcat/Km [8]: 8600 M⁻¹ s⁻¹
Km [9]: 8 ± 2 µM
kcat [9]: 0.6 ± 0.03 s⁻¹
kcat/Km [9]: 75000 M⁻¹ s⁻¹
Km [10]: 85 ± 21 µM
kcat [10]: 0.23 ± 0.05 s⁻¹
kcat/Km [10]: 2700 M⁻¹ s⁻¹
